B1: PTPN9 (parent)
chain: NKWTVQYNVSPLSWNVAVKFLMAR

Variants of: B1
Assay: protein stability index of a GFP-peptide fusion (GPS, HEK-293T) (PSI 1-6); higher = more stable
Conditions: c terminus: a fixed tail appended
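Further: lentivirally expressed fusions sorted by FACS into six bins by GFP to DsRed ratio, PSI derived from sequencing read proportions per bin multiplied by bin number.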

In order of rising protein stability index:
1. NKHTVQYNVSPLSWNVAVKFLMAR [W3H]  1.02
2. NKWTVQYNVSPLSWNVAPKFLMAR [V18P]  1.28
3. NKWTVQYNVSPLSENVAVKFLMAR [W14E]  1.28
4. NKTTVQYNVSPLSWNVAVKFLMAR [W3T]  1.46
5. NKWTVQYNVSPLSWNVAQKFLMAR [V18Q]  1.49
6. NKWTVQYAVSPLSWNVAVKFLMAR [N8A]  1.49
7. NKWTVQYNVSPPSWNVAVKFLMAR [L12P]  1.52
8. NKWTVQYNVIPLSWNVAVKFLMAR [S10I]  1.62
9. NKWTVQYNVSPLSWNVAVKFGMAR [L21G]  1.73
10. NKWTVQYNVSPLSWNVAVKFLEAR [M22E]  1.73
11. NKWPVQYNVSPLSWNVAVKFLMAR [T4P]  1.76
12. NKWTVQYNVSPLSWNVAWKFLMAR [V18W]  1.77
13. NKWTVAYNVSPLSWNVAVKFLMAR [Q6A]  1.78
14. NKWNVQYNVSPLSWNVAVKFLMAR [T4N]  1.81
15. NNWTVQYNVSPLSWNVAVKFLMAR [K2N]  1.83
16. NKWTVQYNVSPLSWNVAVKFLGAR [M22G]  1.83
17. NKWTVQYNVSPLSWNVAVKFLMAS [R24S]  1.83
18. NKWTVQYNVSPLSWNSAVKFLMAR [V16S]  1.87
19. NKETVQYNVSPLSWNVAVKFLMAR [W3E]  1.91
20. NKWTVQYNVSPLSWLVAVKFLMAR [N15L]  1.92
21. NKWTVQYNVSPLSWNVAVKDLMAR [F20D]  1.97
22. NKWTVQYNSSPLSWNVAVKFLMAR [V9S]  2
23. NKWTVQYSVSPLSWNVAVKFLMAR [N8S]  2
24. NKWTVMYNVSPLSWNVAVKFLMAR [Q6M]  2.02
25. NKWTVQYNVSPLSWFVAVKFLMAR [N15F]  2.02
26. NKWTVQYNDSPLSWNVAVKFLMAR [V9D]  2.06
27. NKVTVQYNVSPLSWNVAVKFLMAR [W3V]  2.08
28. NKWTVQYNVSPLSWNVARKFLMAR [V18R]  2.08
29. NKWTVQYNVSPMSWNVAVKFLMAR [L12M]  2.17
30. NKWTVQYNVSPLSWNVAVKFLMAK [R24K]  2.18
31. NKWTVQYNVDPLSWNVAVKFLMAR [S10D]  2.26
32. NKWTVQYHVSPLSWNVAVKFLMAR [N8H]  2.26
33. NQWTVQYNVSPLSWNVAVKFLMAR [K2Q]  2.27
34. NKWQVQYNVSPLSWNVAVKFLMAR [T4Q]  2.27
35. NKWTVQYNVSPLSWNVAVKFLMPR [A23P]  2.3
36. NKWTVQYNVSPLPWNVAVKFLMAR [S13P]  2.31
37. NKWTVQYNVNPLSWNVAVKFLMAR [S10N]  2.35
38. NKWTVQYNVSPLSWNVAVKFMMAR [L21M]  2.35
39. NKWTVQYNVSPLSWNAAVKFLMAR [V16A]  2.35
40. NKWTVQYNVSPLSWNVAVKFLHAR [M22H]  2.36
41. NKWTVNYNVSPLSWNVAVKFLMAR [Q6N]  2.38
42. NKWTVQYNVSPLSWNVAVKFLMAD [R24D]  2.41
43. NKWTVQYNVSELSWNVAVKFLMAR [P11E]  2.43
44. NKWTVQYLVSPLSWNVAVKFLMAR [N8L]  2.45
45. NKWTVSYNVSPLSWNVAVKFLMAR [Q6S]  2.46
46. NKWTVQYNVSPLSWNVAVKFKMAR [L21K]  2.5
47. NKWTVQYNVSGLSWNVAVKFLMAR [P11G]  2.51
48. NKWTVPYNVSPLSWNVAVKFLMAR [Q6P]  2.54
49. NKWTVQYNKSPLSWNVAVKFLMAR [V9K]  2.56
50. NKWMVQYNVSPLSWNVAVKFLMAR [T4M]  2.57
51. NKWTVQYNVSPLSQNVAVKFLMAR [W14Q]  2.62
52. NKWTVQYNVSPLSWNEAVKFLMAR [V16E]  2.65
53. NKWTVQYNTSPLSWNVAVKFLMAR [V9T]  2.65
54. NKWTVQYNVSPLSWNVAVKFLMAY [R24Y]  2.66
55. NKWTVQYNVSPLSWNVAVKELMAR [F20E]  2.68
56. NKWTVQYNVSPLSWNHAVKFLMAR [V16H]  2.69
57. NKWTVQYNVSPLSLNVAVKFLMAR [W14L]  2.71
58. NKWTVQYNVSPLSWNVAKKFLMAR [V18K]  2.72
59. NKWTVQYNVSPLSWNVAVKFLIAR [M22I]  2.72
60. NKWTVQYNVSPLSWNVACKFLMAR [V18C]  2.73
61. NKWTVQYNVSPLSWNVAVKFLKAR [M22K]  2.73
62. NKWTVQYNVSPLKWNVAVKFLMAR [S13K]  2.74
63. NKWTVQYNVSPLSWNVATKFLMAR [V18T]  2.76
64. NKWTVQYNVMPLSWNVAVKFLMAR [S10M]  2.81
65. NKWTVQYNVSPLSWTVAVKFLMAR [N15T]  2.89
66. NKWTVQYNVSPLSWNVAVKFTMAR [L21T]  2.9
67. NKWTVQYNVSPCSWNVAVKFLMAR [L12C]  2.9
68. NKWTVQYNVSPLSWNVAVKFLMAV [R24V]  2.97
69. NKWTVCYNVSPLSWNVAVKFLMAR [Q6C]  2.98
70. NKWTVQYNVSPLSWNVAVQFLMAR [K19Q]  3.01
71. NKWTVQYNVSPLSINVAVKFLMAR [W14I]  3.02
72. NKWTVQYNVSPLSWNVAVKFLYAR [M22Y]  3.05
73. NKWTVQYNVSPLSWNVAVKFLMAW [R24W]  3.09
74. NKWTVQYNVSPWSWNVAVKFLMAR [L12W]  3.11
75. NKWTVQYNVVPLSWNVAVKFLMAR [S10V]  3.2
76. NKWTVQYCVSPLSWNVAVKFLMAR [N8C]  3.2
77. NKWTVQYNVSPLSWNKAVKFLMAR [V16K]  3.3
78. NKWTVQYNVSPLNWNVAVKFLMAR [S13N]  3.31
79. NKWTVQYNVSPLSWNVAVKFLMMR [A23M]  3.33
80. NKWTVQYNVSPLSWNVAVKALMAR [F20A]  3.35
81. NKWTVQYNVSPLSWNVAVKFAMAR [L21A]  3.37
82. NKWTVQYNVSPLSWNVAVHFLMAR [K19H]  3.44
83. NLWTVQYNVSPLSWNVAVKFLMAR [K2L]  3.54
84. NCWTVQYNVSPLSWNVAVKFLMAR [K2C]  3.56
85. NKWTVQYNVSPLSWNMAVKFLMAR [V16M]  3.58
86. NKWTVQYNVSPLSWNVAVKFLFAR [M22F]  3.6
87. NKWTVQYNVSPLSWNRAVKFLMAR [V16R]  3.68
88. NKWTVQYNVSPLSWNVAVEFLMAR [K19E]  3.72
89. NKWTVQYNVSPLSWNVAVKWLMAR [F20W]  3.8
90. NKWTVQYNVSPLSWNCAVKFLMAR [V16C]  3.82
91. NKWTVQYNGSPLSWNVAVKFLMAR [V9G]  3.82
92. NKWTVRYNVSPLSWNVAVKFLMAR [Q6R]  4.19
93. NKWTVQYNVSPASWNVAVKFLMAR [L12A]  4.28
94. NKWTVQYNVSPRSWNVAVKFLMAR [L12R]  4.48

Reference: the supplement of paper PMC10567573
